The assay addresses CD99 antigen (Origene, Sku #TP304058) (UniProt P14209). The assay is described as follows: ELISA on coated CD99 antigen. (In general: An ELISA detects its analyte on a solid surface through an enzyme-linked reagent.)

One molecule from patent US20230257477A1 can be followed below.

CD99 antigen (Origene, Sku #TP304058), sequence (P14209 23-185 limits assumed): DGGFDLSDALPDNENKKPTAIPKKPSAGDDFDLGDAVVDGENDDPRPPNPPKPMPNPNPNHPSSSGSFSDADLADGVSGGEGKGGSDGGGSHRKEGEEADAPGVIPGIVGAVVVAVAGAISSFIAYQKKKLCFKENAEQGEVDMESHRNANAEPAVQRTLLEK

B1: 1H3H9 (antibody, V domains shown)
VH: EVQLQQSGAELVKPGASVKLSCTASGFDIKDTYIHWVKQRPEQGLEWIGRIDPANGDTRYDPEFQGKASLTADTSSNTAYLQFSNLTSEDTAVYYCARRGGLSWGQGTTLTVSS
VL: DIQMTQSPASLSASVGETVTITCRASGNIHNYLAWYQQKQGKSPQLLVYNAKTLADGVPSRFSGSGSGTQYSLKINSLQPEDFGSYYCQHFWSTPWTFGGGTKLEIK
In the case of B1, the ELISA absorbance stood at 0.658.
